Data: US12649783B2, “Anti-MCT1 antibodies and uses thereof” (IMMUNEXT INC., priority 2018, dated 2026)

T1: MCT1 (Homo sapiens, UniProt P53985)
T1 construct: HEK-293 WT cells only express MCT1/CD147 and no other MCTs as measured by RT-PCR; endogenous in cells; host or cells: HEK293T
T1 sequence (P53985 1-500): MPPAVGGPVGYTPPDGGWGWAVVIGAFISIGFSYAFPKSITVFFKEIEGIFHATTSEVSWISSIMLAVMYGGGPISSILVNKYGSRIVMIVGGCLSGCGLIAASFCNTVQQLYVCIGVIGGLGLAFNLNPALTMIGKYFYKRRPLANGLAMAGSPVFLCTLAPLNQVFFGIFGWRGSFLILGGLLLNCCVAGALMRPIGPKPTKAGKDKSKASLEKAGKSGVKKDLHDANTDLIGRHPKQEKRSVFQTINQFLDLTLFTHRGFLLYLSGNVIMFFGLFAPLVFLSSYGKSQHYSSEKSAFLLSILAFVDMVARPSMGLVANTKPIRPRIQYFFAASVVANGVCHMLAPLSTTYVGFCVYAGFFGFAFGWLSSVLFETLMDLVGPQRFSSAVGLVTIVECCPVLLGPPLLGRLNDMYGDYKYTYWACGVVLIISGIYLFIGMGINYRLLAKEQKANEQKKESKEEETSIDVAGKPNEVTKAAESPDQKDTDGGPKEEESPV


What was measured:
Tr1 cells = assay: ex vivo Tr1 survival; assay type: cell-based, human
Experimental: Humanized NSG mice (treated with anti-MCT1) were sacrificed on d32 or other day specified, single cells suspensions were prepared from spleens, followed by bead-based enrichment of hCD3+ cells. Isolated cells were plated with the analytes (see above table) to access Tr1 survival: […]

MCT1 = molecular target: T1, MCT1; assay: bromopyruvate toxicity assay (ATPlite); assay type: cell-based
Experimental: Inhibition of bromopyruvate toxicity. Since MCT1 is the sole transporter necessary for the in vitro efficacy of the anti-cancer toxin bromopyruvate (Reference 66), a second cell-based functional assay was developed to measure the in vitro killing of cells using this toxin at a concentration of 150 μM.
HEK293T cells are pre-treated with anti-MCT1 antibody or small molecular MCT1 inhibitor at 37° C. for 1 hour. Cells are then incubated with a cytotoxic reagent 3-bromopyruvate (3-BrPy) at concentrations that rand from 25 to 500 μM for 2 to 6 hours. ATP from dying cells will be quantified using a commercial viability kit (ATPlite, PerkinElmer) in a 96-well plate and viability measured using luminescence. Reduction of ATP production indicates functionality of the antibody. A positive control antibody is the mouse or chimeric antibody before humanization. A negative control cell line is MCT1/CD147 double knockout 293T cells. Using this assay functional, i.e., antagonistic anti-MCT1 antibodies may be identified.

Row | Molecule | ex vivo Tr1 survival (Tr1 cells) | block of human MCT1 function (MCT1)
1 | IL-7: Recombinant Human IL-7 (carrier-free), Biolegend 581904 (protein, UniProt P13232 26-177, looked up) Interleukin-7: DCDIEGKDGKQYESVLMVSIDQLLDSMKEIGSNCLNNEFNFFKRHICDANKEGMFLFRAARKLRQFLKMNSTGDFDLHLLKVSEGTTILLNCTGQVKGRKPAALGEAQPTKSLEENKSLKEQKKLNDLCFLKRLLQEIKTCWNKILMGTKEH | increased ex vivo Tr1 survival in a dose-dependent manner | 
2 | LM186: chicken anti-human MCT1 antibody; HC/LC SEQ ID NO: 184/189 (antibody, HC Protein; LC Protein) heavy: AVTLDESGGGLQTPGGGLSLVCKASGFSFSSRGMFWVRQAPGKGLEYVAGIDNDGGYPNYGSAVKGRATISRDNRQSTVRLQLNNLRADDTGTYYCAKGAYGGGWYAASSIDAWGHGTEVIVSS light: ALTQPSSVSANPGEAVKITCSGGVGQWYGWFQQKAPGSAPVTVIHDNTNRPSDIPSRFSGSKSGSTGTLTITGVQAEDEAVYFCANTYSDGNDAPFGAGTTLTVL |  | block human MCT1 function
